According to PMC13267735, “Structural basis of liver de-targeting and neuronal tropism of CNS-targeted AAV capsids” (Molecular therapy : the journal of the American Society of …, 2026):

B1: LY6A (AA 1-109) derived from C57BL/6 mice with Fc (human IgG1), Myc and 6xHis tags (Fc fusion, mouse (C57BL/6), UniProt P05533 27-109, looked up)
chain: LECYQCYGVPFETSCPSITCPYPDGVCVTQEAAVIVDSQTRKVKNNLCLPICPPNIESMEILGTKVNVKTSCCQEDLCNVAVP
notes: signal peptide in the construct; LY6A, C57BL/6 mouse, AA 1-109; also called His-Fc-LY6A; source: HEK293T, transiently transfected, secreted into conditioned media, purified (Ni-NTA)
B2: PKD2 domain of AAVR (AA 401-498) fused to maltose binding protein and 6xHis (domain or fragment)
chain: EPRKNRPPIAIVSPQFQEISLPTTSTVIDGSQSTDDDKIVQYHWEELKGPLREEKISEDTAILKLSKLVPGNYTFSLTVVDSDGATNSTTANLTVNKA
notes: AAV receptor (AAVR), polycystic kidney disease domain 2 (PKD2), AA 401-498; Construct for biolayer interferometry; monomer fraction from SEC was used; also called AAVR-PKD2; MBP-tagged AAVR-PKD2; source: E. coli BL21 (DE3)-RIPL, purified (amylose resin, Superdex 200 SEC)

Assays:
Conditions in all cases: both partners purified
[1] = molecular target: T1, AAV.CAP-B10 capsid (adeno-associated virus serotype 9 (AAV9), UniProt Q6JC40 1-736, 452NGSGQNQ458 to 452DGAATKN458 | 587-588 AQ to DGTLAVPFK); test: pull-down; 6xHis-tagged bait (AAVR-PKD2 100-200 pmol or His-Fc-LY6A 30-60 pmol) on Ni-NTA resin, prey AAVs (0.05 pmol); DPBS with 20 mM imidazole, 1 hr at 4 C; eluted with 150 mM imidazole; western blot with anti-VP1/VP2/VP3 and anti-6xHis
T1 construct: capsid holds VP1, VP2 and VP3; Whole virus capsid packaging an eGFP genome; VP1/VP2/VP3 assembly; source: HEK293T, triple-transfected (pHelper, capsid and genome plasmids), purified (iodixanol gradient)

[2] = molecular target: T2, eB.24 capsid (adeno-associated virus serotype 9 (AAV9), UniProt Q6JC40 1-736, S454A | Q456T | 587-588 AQ to DGTLAVPFK); test: as above
T2 construct: capsid holds VP1, VP2 and VP3; Whole virus capsid packaging an eGFP genome; VP1/VP2/VP3 assembly; also called PHP.eB.24; source: HEK293T, triple-transfected (pHelper, capsid and genome plasmids), purified (iodixanol gradient)

[3] = molecular target: T3, AAV-PHP.eB capsid (adeno-associated virus serotype 9 (AAV9), UniProt Q6JC40 1-736, 587-588 AQ to DGTLAVPFK); test: as above
T3 construct: AAV9 capsid protein VP1 with the PHP.eB VR-VIII 7-mer insertion TLAVPFK between residues 588 and 589 and two flanking point mutations (587-588 AQ to DG); capsid holds VP1, VP2 and VP3; Whole virus capsid packaging an eGFP genome; VP1/VP2/VP3 assembly; source: HEK293T, triple-transfected (pHelper, capsid and genome plasmids), purified (iodixanol gradient)

[4] = molecular target: T1, AAV.CAP-B10 capsid; test: BLI; BLItz; biotin-conjugated CaptureSelect AAV9 nanobody on streptavidin biosensor, AAV (5x10^12 vg/ml) loaded as biolayer, MBP-tagged PKD2 as analyte at 1.25-80 uM, 120 s association and 120 s dissociation; DPBS, 1% BSA, 0.02% Tween-20; Kd averaged from 3 experiments
[5] = molecular target: T4, AAV9-X1 capsid (adeno-associated virus serotype 9 (AAV9), UniProt Q6JC40 1-736, GNNTRSV inserted between 588 and 589); test: as above
T4 construct: capsid holds VP1, VP2 and VP3; Whole virus capsid packaging an eGFP genome; VP1/VP2/VP3 assembly; source: HEK293T, triple-transfected (pHelper, capsid and genome plasmids), purified (iodixanol gradient)

[6] = molecular target: T5, AAV9 (wild-type) capsid (adeno-associated virus serotype 9 (AAV9), UniProt Q6JC40 1-736); test: as above
T5 construct: AAV9 capsid protein VP1; VR-IV 452-458 NGSGQNQ, VR-VIII 587-590 AQAQ; Whole virus capsid packaging an eGFP genome; also called wild-type AAV9; source: HEK293T, triple-transfected (pHelper, capsid and genome plasmids), purified (iodixanol gradient)

[7] = molecular target: T2, eB.24 capsid; test: as above
[8] = molecular target: T6, AAV9-B10 capsid (adeno-associated virus serotype 9 (AAV9), UniProt Q6JC40 1-736, 452NGSGQNQ458 to 452DGAATKN458); test: as above
T6 construct: AAV9 capsid protein VP1 with the CAP-B10 7-mer in VR-IV (452-458 DGAATKN) and unaltered AAV9 VR-VIII; capsid holds VP1, VP2 and VP3; Whole virus capsid packaging an eGFP genome; VP1/VP2/VP3 assembly; source: HEK293T, triple-transfected (pHelper, capsid and genome plasmids), purified (iodixanol gradient)

[9] = molecular target: T3, AAV-PHP.eB capsid; test: as above
[10] = molecular target: T7, AAV9-X1.1 capsid (adeno-associated virus serotype 9 (AAV9), UniProt Q6JC40 1-736, 452NGSGQNQ458 to 452DGAATKN458 | GNNTRSV inserted between 588 and 589); test: as above
T7 construct: AAV9 capsid protein VP1 with the AAV9-X1 VR-VIII 7-mer insertion GNNTRSV between residues 588 and 589 and the CAP-B10 7-mer in VR-IV (452-458 DGAATKN); capsid holds VP1, VP2 and VP3; Whole virus capsid packaging an eGFP genome (SCP1 promoter); VP1/VP2/VP3 assembly; source: HEK293T, triple-transfected (pHelper, capsid and genome plasmids), purified (iodixanol gradient)

Binder | binding result [1] | binding result [2] | binding result [3] | Kd [4] | Kd [5] | Kd [6] | Kd [7] | Kd [8] | Kd [9] | Kd [10]
B1 | binds | binds | binds |  |  |  |  |  |  | 
B2 |  |  |  | 61 µM | 6 µM | 11 µM | 24 µM | 47 µM | 14 µM | 19 µM
